Source: the DeepSol protein solubility set

Assay: soluble on expression in E. coli; label from the status in PepcDB or PDB records

Row | Sequence | soluble on expression in E. coli
1 | MGSDKIHHHHHHMENILEIVNLNKSYNGIPALSNINLSVKAGEIHGIVGANGSGKTTLMNILFGNPIIHETGGYQGQIFFKGNRVNFKNCAEAIRQGIGMVHQEFALIPDMTVGENIKLGRENTHSLTDRLFGRKYSFIDWKQDYENAWQTLKRLGISVAVGIKIMDLSVNIRQFIEIAREIDRSDLKLLILDEPTAVLNKNDGLKLIEILKDMSNSEIGIIFISHRLEEVQYVCDKVSVLRDGKLVSQYAKGNIYVNDLAQDMIGHTINKAAAEKREIKNKPLITFKDFSVEMPGEEVKNLNLSVYKGEILGLTSLSGHGKLALGYGMMDMYPVDGEVYYENKKIVKMNARTNIIKGMYVLPDDRQGLGILADQSLESNIVFTGNQIKNMFIRNSAFNFLGFIDHHKTNLHVYKMMLDLDIKCTSIKQKVKELSGGNQQKVCIARALTVDPKLLFVAEPTRGIDISAKEKILNMLIEINRTRNTTIIIASSELDELKRVCDRIAVMVEGKIFKILSPDSPDVDFGLVLSGEEEVDCEKL | not soluble
2 | MGSDKIHHHHHHMENLIKIDTVDQYNKMFGLETLHPLVSVVDLSKSETWPTNFRVNYGIYGLFLKDTKCGDIRYGRQYYDYQEGTVVGFAPGQVTGIELKDGTRPLAHGLLFHPDLIRGTALGRDIKRYSFFSYESNEALHLSEEEKGIFVDCLRKIQIELEHSIDKHSKRLIAMNIELLLDYCLRFYDRQFTTRAETNKDVLVRFERLLDEYLQSDLLRQEGLPTVRYFAEKICLSPNYFGDLIKKETGKTAQENIQDRIISLAKEWIVGTNKTVSQIAYDLGFQYSQHFSRIFKKTVGCTPNEYRKSQMS | not soluble
3 | MGSDKIHHHHHHMENLLEVQQLNKSYKNSEFQLTDITFSVKPGEVVGLIGKNGSGKSTLINTLVGNRHKDNGSLKFFNKEVTENDFKYKEHLGVVFDDLRVPDKLTLQSINKVFTEIYDAWNSDTFFSLIKAFELPTNNQIKTFSRGMRMKAALTIALSHDAKLLILDEATAGMDVSGREHVLEILEDYLGDDRAILISSHISEDIEQLATQLVFMRDGRIILKESKEVLLSQYGIIDQPVEHFNISNEYLIATRRRNDRQISLVNNYQKVPDAQPLKTIDDATKIIMRGEV | not soluble
4 | MGSDKIHHHHHHMERLDVFDCSNVLIASYFTDDRGCAHENREHTLIYLCSGELEIEERGKKTVLHPGDCAFMRRDNRMWLQKKVEDGKPYRSVVLKFSRPFLREFYQTLNRQQIPTDSEREKVSLRVLPSNRPDIRSLFESVIPYFDAGEKPSEDVLKLKMVEGIYVLLNTDRNLYASLFDFVEPWKIDILDYLNENYMCDLSLEEIASYTGRSLATFKRDFAKVSNLTPQKWIVKRRLEAAHGLIKSGKKKVTEACFDVGFKNLSHFSKIYKEAYGVAPSW | not soluble
5 | MGSDKIHHHHHHMERQARIIAFYATNENVGKSTLSIAMANELAHLGKKVLYVEADQVRPSFAVGTGLSHDSKNILELVRKENEYNLSQYICTKQDLLERKMNPRLMQKLHDKMDFLVFPSGYNLAQFPEIQNKELFVTTFIESLVDTEYDSIILSVPTELSEVLSYPILYQSDLVIHVLNGNPRGAIAIKRELQLLEEAKLTLPRMIHVLNMADEDYVEDIEKLSSQKIAVTIPYDRDRTSYEWGMQFGSPQINTKVHHIMEAAGLDIPTQHTSSMKKGLFGLRN | not soluble
6 | MGSDKIHHHHHHMESTMKLATAPDAWGVWYADDPRQTPWERYLDEVRDSGFTATETGPWGYLPTDPSHLTDALGSRGLSVCGSALVHLLAPADAMETLRPRLEQTCGLLKAMKAEWVVLMDDSDLPLPGQSRALSPHDWASMIRNIKDAARYVTEEHGLSFVFHPHVGSGVETEAEVIRLLEETSEDSVGLCFDFGHHAYTGADAVAFMKRYADRIPYYHFKNVDPVLLAHIRQNNINFIEGFQSGVMCELDKGMVDFAEVRDFLATRGFDGYAVYEQDMYPCPPEKPFPIACHNRQVLRELGI | not soluble
7 | MGSDKIHHHHHHMESVYLFSSGTLKRKANTICLETESGRKYIPVENVMDIKVFGEVDLNKRFLEFLSQKRIPIHFFNREGYYVGTFYPREYLNSGFLILKQAEHYINQEKRMLIAREIVSRSFQNMVDFLKKRKVRADSLTRYKKKAEEASNVSELMGIEGNAREEYYSMIDSLVSDERFRIEKRTRRPPKNFANTLISFGNSLLYTTVLSLIYQTHLDPRIGYLHETNFRRFSLNLDIAELFKPAVVDRLFLNLVNTRQINEKHFDEISEGLMLNDEGKSLFVKNYEQALRETVFHKKLNRYVSMRSLIKMELHKLEKHLIGEQVFGSEE | not soluble
8 | MGSDKIHHHHHHMETFHLTRNEMATLLLSLRGWNTKKPLGILQEAWAKSHKKDIESGQSVTAFITTALSPIFEKLIKIDDTDVGFSLNEIVALGNQIENTSFSVTAMQNWVKRDIKEMIGSPQKGKKYSIEQAALLFIVEDLKTALDFESIRKLLRLIVNDPADRSDDLINPVHLYGAYSSLFEELNQGNCLQLNATDTIHTIENIVKERADKIASKFDQVNNEQREAIRNAIIIATLSVHTAYVQMLAKRYVTATLFLQNLDVKP | not soluble
9 | MGSDKIHHHHHHMETKINSKALKAEALRLGFSACGIAPAEPIDQAHQNALKMWLDADRQAGMTYMANHFDKRCDPALLVEGTRCVVSVALNYYPATRIPDEEYQFAWYAYGKDYHDLMREKLATLFRFIQESDVPELNGRMFCDTAPVPERYWAWRAGLGWIGKNTQLIIPHAGSTFFLGELFLNTEADTYDRPQPNRCGRCNRCLQACPTKALETPYSLNAHRCLSYLTIENKSEIPDSIAPFMGNRVYGCDECQKACPWNRFATPCRTPELQPSPEFMNMKKEDWKQLSEEKYRALFKGSAVKRAKYSGLIRNIRQMED | not soluble
10 | MGSDKIHHHHHHMETLRILHTNDLHSHFEHFPKIGRYLKKAQADNSVDEVYTFDAGDFMDRSHPLTDATEGQANIKLMNGFKYTAVTIGNNEGISNPHWVLEHLFDHADFPTVLANLREEDESMPNWAIGHKILTTKKNTRIALIGLTAAYPMTYGPNHWHVKMLGSTMDKELAKINGQYDMLILITHIGLKMDRWLAKNYPQIDLIVGGHSHDLIVQGEKVDHTWITQTGKWGNYVGDIHVELEDHHVTKIVPNTVATASMPEEPEDESVIKGYYEKGKQLLSERKVAKLPEKFADDKIAAVQVSLDAIADFAKTDLAILSSGLFLTPFKSGILTQFDLQNALPHPMHVVRSTLKGSDLWRLVMEIEKNRHYLDHFPLQGMSFRGKIFGQMYYKGIKVDMRKRIVYVNGQEINPDSEYRIACLDHYVLVPFFPTLAIVGENEFLFPQFLREVVGDYLAKKYPLPARSEIND | not soluble
11 | MGSDKIHHHHHHMETRKLAVFVDLATTQNYSRSAERMFLSQSTISKYIMALERDWQVQLFERAHRQVTLTRIGQQLLPRAQAILREERQLQQVLAANTAHNAQSLVVQGLPSLAQYQAFHIITAFTKRYPEVKLQFSEASVDRLAHALDHTNVDIVFTRIFGDQPNNYDVLLNETDQFVVLVPKDDPLAQQAEISLSMLAHESILLLKDTIGEDNPLFSAFQKMHTPQMVYDGQRIDLILEMLNQGDGVSVVMARSFDLTGFDNIKAIPLTPTIRSQMAFMKRPDNHAAVVAKFWAFATKYSQSLSD | not soluble
12 | MGSDKIHHHHHHMEVERLSLKEFCDMVAERKPTPGGGAVGSVVGAMACALAEMVANFTRKKKGYEDVEPEMERIVEAMEEARLKLFDLAKKDMEAFEKVMKAYKSSEGELQNALKEAASVPMDVIRVMKDLAHELEKLAEFGNKNLASDTLNAADLCHAVFQVEKVNVLINLKEISDETFRKNMLEELEEQEAQIEGCYQRVKKMLEGIVWSSK | soluble
13 | MGSDKIHHHHHHMEVKPFRPLIYRKEIDGMISPPFDAITPKQEIELKRNPYNITYLTLPKGRDGVSHARMIMENWIENGVLLRAERDCIIVLKQIFSANSRRITRYGIIARVRVFPENGDVIPHERTFDEFVRDREILMEGIGSQLEPIFLVTLKNELPQYLKIITENMKEDNRYFGPENVENYVYYIYDHKEIQKISNILRNDIAIVADGHHRLQATKNIASRQSGLAREFWSYAMSYVTSIHDEGVLIGGVHRVISSRFRFDADRASKYFYVDQCDTIAGNDPVIYDGRFYCIRPRENVYDNIIDSLNDFLFSKTIGMSTIDLERDVIYTHDYAEVVNLVNSGSFSFGVIMPDWDKAHLVELLLTRKILPQKSTYFYPKIPSGISIDSISEFIVT | not soluble
14 | MGSDKIHHHHHHMEYVIEMNNITKVFPGIVANDDITLQVKQGEIHALLGENGAGKSTLMNVLFGLYQPEQGEIKIKGKPVKITNPNIANDLGIGMVHQHFMLVHNFTVTENIILGNEPKKNGKIAVEEAAKEIKQLSEQYGLAVDPHAKIEDISVGMQQRVEILKTLYRGAEILIFDEPTAVLTPQEIHELIQIMKKLVQEGKSIILITHKLKEIMEVCDRCTIIRKGKGIGTVDVAETDEHKLAELMVGRQVNFKTEKIEAKPMEEVLSIANLIVHDTRKLPAVKGLDLTVRAGEIVGIAGIDGNGQSELIEAITGLRKVESGSIAIKGKEITNWPVRRITEEGIGHIPEDRHKHGLVLDFSVRDNIVLQTYYKNPFSKKGILNFSKITEKAKALIEQFDVRTPSEQTLARALSGGNQQKAIIAREVDRNPDLLIAAQPTRGLDVGAIEFIHKKLIEQRDNGKAVLLLSLELDEILNVSDRVAVIYEGKIVAIVDAKETNEQQLGLLMAGGTGKEKVNTNG | not soluble
15 | MGSDKIHHHHHHMFAMAGFPDKIKTIKKGLDVPIAGEPRQEIDCCARPAKVALLGEEYVGLKPTLLVEVGDRVKKGQTLFEDKKAPGIGFTAPASGVVVEINRGERRVLQSVVIQVEGDEQVTFKAYSDLSRLSREAVQQNLAESGLWTALRTRPFSRVPLLDSEPAAIFVNAMDTNPLAADPRVIIAEQREAFAAGLEVLTYLTSGKIHLCHDAGEALPGADLARVESHRFAGVHPAGLVGTHIHFIAPASLERPVWHLGYQDVIAYGKLFLTGELYTDRVVALGGPTALNPRLLRTQLGAQLSTLVEGEIKPGSNRVVSGSVLAGHTAFGVHDYLGRFHQQISVLAEDAKHQLLPWVRGGADKFSITRAVTSRFKATKRLFDLTTHAGGSHRAMMAFGQLDRVMPLDILPTLLVRDLVVRDTDEAQALGALELDEEDLALCTFVCPGKYDFGRELRICLDIIEREG | not soluble
16 | MGSDKIHHHHHHMFIKNAWYVACRPEEIQDKPLGRTICGEKIVFYRGKENQVAAVEDFCPHRGAPLSLGYVEDGNLVCGYHGLVMGCDGKTVSMPAQRVNGFPCNKAYAVVEKFGFIWVWPGEKALADEAKLPTLEWADHPEWSYGGGLFHIQCDYRLMIDNLMDLTHETYVHSSSIGQKEIDEALPVTKVEGDHVITERYMENVIAPPFWQMALRGNHLADDVPVDRWQRCHFFAPSNVHIEVGVAHAGHGGYHAPKDKKVSSIVVDFITPETETSHWYFWGMARNFQPDNAELTDQIREGQGKIFTEDLEMLEQQQQNILNNPHRKLLMLNIDAGGVQSRKVIDRLLAEENKTPPETSTQKFPNIRII | not soluble
17 | MGSDKIHHHHHHMFISDVHLGSKAAKADFLIDFLRYHDADIIYLVGDIVDGWRLRRSWHWPQSHNDVVQKLLRKARKGASITYIAGNHDEFARQFQGVHFGGIVVADRAIHETADGKRLLVIHGDQFDTVVHNQRWLAYLGDHAYDAAMIVNRVVTRLRQLLGLPYWSFSSWAKVKVKKAVNFIGSFQTVLTEEARRSHVDGVICGHIHHAAIENFDDVRYINTGDWVESCTAVVEHFDGRMEILTWAQVLPESFDEPFIPMLIEDRVGQAA | not soluble
18 | MGSDKIHHHHHHMFKNVSWKLKEHSELKKYGIDHNILLDVVSRERRKIYFDYWKNLPKLVTSSLGLKFTDGTPVDALYEVFIEGIYDVDGFRPKMGDVVVDVGANYGDSSIWWAKKKFGAKVIAFEPLADVFHELEKNIRINHADVIAYNVALGNGNFINGSKQGNMFVAGGQAKIQTSRLDDYTFDRLDLLKIDVEGFEHDVLLGARSTISKFKPKIIIETHSVALRKLCHEFLISLGYSLSLEGRTIRAHSPGMDKVTNLFYSPII | not soluble
